Data from US20090029005A1.
Several values for one entry are separate records, joined by “and”; a condition that tells them apart may be missing. Equal values may be shown once.

Target: Angiotensin-I Converting Enzyme (ACE)
Assay: cell-based or functional assay

Ovotransferrin (TRFE_CHICK), not hydrolysed and not digested, sequence (P02789 20-705 limits assumed): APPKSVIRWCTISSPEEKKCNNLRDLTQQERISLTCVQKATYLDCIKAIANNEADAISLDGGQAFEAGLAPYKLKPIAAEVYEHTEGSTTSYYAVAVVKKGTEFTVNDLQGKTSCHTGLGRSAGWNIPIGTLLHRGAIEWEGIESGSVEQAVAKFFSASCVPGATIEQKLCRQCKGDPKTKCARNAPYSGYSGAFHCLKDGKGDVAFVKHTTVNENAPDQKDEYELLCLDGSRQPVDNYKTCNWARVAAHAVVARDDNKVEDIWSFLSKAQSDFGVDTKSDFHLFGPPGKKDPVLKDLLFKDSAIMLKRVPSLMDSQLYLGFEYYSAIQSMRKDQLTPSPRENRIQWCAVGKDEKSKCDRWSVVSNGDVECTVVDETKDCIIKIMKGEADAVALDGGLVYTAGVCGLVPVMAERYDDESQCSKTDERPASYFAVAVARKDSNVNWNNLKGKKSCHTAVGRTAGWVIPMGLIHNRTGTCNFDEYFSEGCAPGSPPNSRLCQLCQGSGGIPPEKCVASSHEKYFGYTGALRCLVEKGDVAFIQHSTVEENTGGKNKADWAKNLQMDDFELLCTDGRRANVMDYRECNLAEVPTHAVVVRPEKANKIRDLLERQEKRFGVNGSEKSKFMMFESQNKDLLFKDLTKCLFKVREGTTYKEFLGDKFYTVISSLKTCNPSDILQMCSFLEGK

Substance | ACE inhibition (% inhibition) at 0.5 mg/ml | inhibition (%) at 0.0625 mg/ml | inhibition (%) at 0.125 mg/ml | inhibition (%) at 0.25 mg/ml | inhibition (%) at 0.5 mg/ml | inhibition (%) at 2 mg/ml | inhibition (%) at 1 mg/ml | ACE inhibition (%) at 0.167 mg/ml, Hip-His-Leu/TNBS microtiter assay [%] | ACE inhibition (%) at 0.019 mg/ml, Hip-His-Leu/TNBS microtiter assay [%] | ACE inhibition (%) at 0.056 mg/ml, Hip-His-Leu/TNBS microtiter assay [%]
Egg yolk/Alcalase hydrolysate | 68% and 76% and 61% | 30.9% and 6.5% | 45.7% and 25.1% | 59.1% and 41.9% | 75.8% and 61% | 100% | – | – | – | –
Egg yolk/Newlase F hydrolysate | 57% and 51% | 15.5% and 21.6% | 21.7% and 18.2% | 24.1% and 36.1% | 51.3% and 57.3% | – | 69.5% and 80% | – | – | –
Egg yolk/PEM hydrolysate | 58% and 62% and 53% | 15.4% and 25.4% | 28.8% and 52.8% | 45.3% and 36.6% | 62.1% and 52.9% | 99.7% and 96.6% | 69.8% and 64.6% | – | – | –
Egg yolk/PTN hydrolysate | – | – | – | 27.6% and 44.3% | – | 96.9% and 78.1% | 75.7% and 59.9% | – | – | –
Egg yolk/Protex 6L hydrolysate | – | 15% and 22.4% | 26.6% and 37% | 41.3% and 62.7% | – | 105% and 89.9% | – | – | – | –
EggWhite 1101/Alcalase hydrolysate | – | 19.6% and 10.7% | 34.2% and 12.8% | 46.5% and 32.1% | 63.1% and 39.9% | – | 66.5% and 71.7% | – | – | –
EggWhite 1101/Promod 258P hydrolysate | – | 27.9% and 20% | 40.3% and 36.2% | 45% and 33.9% | 62.8% and 47.2% | – | 77.9% and 78.4% | – | – | –
EggWhite 1101/Protex 6L hydrolysate | – | 17% and 11.9% | 20.2% and 23% | 31.3% and 33.3% | 50.6% and 44.4% | – | 63.2% and 62.2% | – | – | –
EggWhite 1102/Alcalase hydrolysate | – | 18.2% and 2.4% | 36.4% and 16.7% | 43% and 23.3% | 58.8% and 48.1% | 86.3% and 65.8% | 76.9% and 67% | – | – | –
EggWhite 1102/Promod 258P hydrolysate | – | – | – | 42.8% and 19.5% | 62% and 42.7% | 91.3% and 76.8% | 75% and 61.9% | – | – | –
EggWhite 1102/Protex 6L hydrolysate | – | 16.3% and 4.9% | 24.7% and 19% | 33.2% and 41.7% | 47% and 49.2% | 60.2% and 71.8% | 58.4% and 66% | – | – | –
Lysozyme (Lysozyme C, LYC_CHICK), not hydrolysed and not digested (from UniProt P00698 19-147) (enzyme) | – | – | – | – | – | – | – | -4.7 | – | –
Lysozyme/Alcalase hydrolysate | 70% and 82% and 58% | 35.2% and 14.3% | – | – | 82.1% and 58.1% | 126% and 102% | 81.3% and 79.9% | – | – | –
Lysozyme/PEM hydrolysate | 56% and 55% and 58% | 29.2% and 27.3% | 38% and 35.1% | 49.7% and 49.5% | 54.7% and 58% | 102% and 123% | – | – | – | –
Lysozyme/PTN hydrolysate | 52% and 62% and 42% | 18.9% and 6.4% | – | – | 62.4% and 42% | 79.7% and 103% | 75.7% and 75.8% | – | – | –
Lysozyme/Protex 6L hydrolysate | 71% and 74% and 69% | 42.4% and 30.9% | 42.2% and 44.6% | 65.8% and 58.3% | 73.9% and 68.7% | – | 83% and 83.5% | – | – | –

Substance | ACE inhibition (% inhibition) at 0.5 mg/ml | inhibition (%) at 0.0625 mg/ml | inhibition (%) at 0.125 mg/ml | inhibition (%) at 0.25 mg/ml | inhibition (%) at 0.5 mg/ml | inhibition (%) at 2 mg/ml | inhibition (%) at 1 mg/ml | ACE inhibition (%) at 0.167 mg/ml, Hip-His-Leu/TNBS microtiter assay [%] | ACE inhibition (%) at 0.019 mg/ml, Hip-His-Leu/TNBS microtiter assay [%] | ACE inhibition (%) at 0.056 mg/ml, Hip-His-Leu/TNBS microtiter assay [%]
Ovalbumin hydrolysate (enzyme of the column not resolvable: PEM, Newlase F or Alcalase) | – | -6.8% and 0% | 0% and 1.6% | 17.4% and 13.4% | 31.1% and 24.6% | 87.8% and 64.4% | 18.2% and 41.3% | – | – | –
Ovalbumin/Alcalase hydrolysate | – | 23.4% and 3.1% | 7.3% and 16.2% | – | – | 89.2% and 74.8% | – | – | – | –
Ovalbumin/Newlase F hydrolysate | – | 3.7% | 16.3% | 23.5% | 45.8% | 82.5% | 55.9% | – | – | –
Ovalbumin/PEM hydrolysate | – | – | – | – | 51.4% and 27.7% | 61% and 39.1% | 57.3% and 36.3% | – | – | –
Ovalbumin/Promod 258P hydrolysate | 53% and 49% and 58% | 14% and 8.7% | 40.7% and 23.2% | 37.3% and 33.8% | 48.6% and 57.6% | 103% and 78.2% | 87.5% and 67% | – | – | –
Ovomucin, not hydrolysed and not digested | – | – | – | – | – | – | – | 2.2 | -0.4 | 5.2
Ovomucin/Alcalase hydrolysate | 56% and 57% and 55% | 24% and 22% | 25.5% and 33.2% | 37.1% and 43.8% | 57.3% and 55.2% | 81.7% and 86% | 67.2% and 69.9% | – | – | –
Ovomucin/Newlase F hydrolysate | – | -13.7% and 7.8% | – | 30.6% and 18.6% | 42.5% and 31.3% | 59.6% and 49.2% | 45.7% and 49.2% | – | – | –
Ovomucin/PEM hydrolysate | – | 25.9% and 5.5% | 13.3% and 9.1% | 41.1% and 19.6% and 36.1% | 66.3% and 43.1% and 48.6% | 73.1% and 78.1% and 88% | 51.3% and 62.3% and 66% | – | – | –
Ovomucin/PTN hydrolysate | 50% and 55% and 45% | – | 19.7% and 16.9% | 43.8% and 21% | 55.3% and 44.7% | – | 65.5% and 50.9% | – | – | –
Ovomucin/Protex 6L hydrolysate | 59% and 69% and 49% | 24.9% and 5.1% | 31.4% and 16.3% | 47.8% and 30.5% | 68.5% and 49% | 90.8% and 65.8% | 87.6% and 65% | – | – | –
Ovotransferrin (TRFE_CHICK), not hydrolysed and not digested (from UniProt P02789 20-705) | – | – | – | – | – | – | – | 0.7 | 0.7 | -4.1
Ovotransferrin/Newlase F hydrolysate | 70% and 71% and 69% | 26.9% and 28.7% | 33.7% and 50.9% | 58.6% and 51.6% | 70.5% and 69.1% | – | 96.1% and 83.1% | – | – | –
Ovotransferrin/PEM hydrolysate | 55% and 52% and 57% | -19.4% and -10.7% | – | 9.8% and 31.8% | 52.4% and 56.6% | – | 69.1% and 73.8% | – | – | –
Ovotransferrin/PTN hydrolysate | 64% and 68% and 60% | – | 28.3% and 37.9% | 51% and 49.8% | 67.8% and 59.9% | – | 80.3% and 84.3% | – | – | –

Same assay, conditions: not given

Substance | ACE inhibition (%) at 0.500 mg/ml, Hip-His-Leu/TNBS microtiter assay [%] | ACE activity IC50; total hydrolysis time 11.5 hours (batch for animal study) [µg/mL] | ACE inhibition IC50; hydrolysis 4 h, 2% enzyme, DH 0% [µg/mL] | ACE inhibition IC50; hydrolysis 5 h, 4% enzyme, DH 5.0% [µg/mL] | ACE inhibition IC50; hydrolysis 5 h, 4% enzyme, DH 12.0 [µg/mL] | ACE inhibition IC50; hydrolysis 6 h, 4% enzyme, DH 7.7% [µg/mL] | ACE inhibition IC50; hydrolysis 7 h, 6% enzyme, DH 12.9% [µg/mL] | ACE inhibition IC50; hydrolysis 7.5 h, 6% enzyme, DH 15.0% [µg/mL] | ACE inhibition IC50; hydrolysis 8 h, 6% enzyme, DH 21.7 [µg/mL] | ACE inhibition IC50; hydrolysis 10.5 h, 8% enzyme, DH 21.2 [µg/mL]
Ovomucin, not hydrolysed and not digested | 2.1 | – | – | – | – | – | – | – | – | –
Ovomucin/Alcalase hydrolysate | – | 230 | > 2000 | 760 | 540 | 660 | 450 | 430 | 390 | 250
Ovotransferrin (TRFE_CHICK), not hydrolysed and not digested (from UniProt P02789 20-705) | -0.3 | – | – | – | – | – | – | – | – | –

Same assay, conditions: not given

Substance | ACE inhibition IC50; hydrolysis 10.5 h, 8% enzyme, DH 23.9 [µg/mL] | ACE inhibition IC50; hydrolysis 13.5 h, 10% enzyme, DH 22.0 [µg/mL] | ACE inhibition IC50; hydrolysis 16.5 h, 12% enzyme, DH 21.1 [µg/mL] | inhibition (%) at 2 mg/ml (*Absorption above 3)
Ovomucin/Alcalase hydrolysate | 210 | 180 | 180 | –
Ovotransferrin/Newlase F hydrolysate | – | – | – | 64.3% and 46.8%
